Target: T1, E200 epitope of P2X7R
T1 peptide: GHNYTTNILPGLNITC
Assay: ELISA, antibody-conjugated liposomes on E200 epitope

B1: single domain antibody (variable domain of SEQ ID NO: 7) conjugated to gemcitabine liposome nanoparticles (VHH)
VHH: EVQLLESGGGLVQPGGSLRLSCAASGFTFRNHDMGWVRQAPGKGLEWVSAISGSGGSTYYANSVKGRFTISRDNSKNTLYLQMNSLRAEDTAVYYCAEPKPMDTEFDYRSPGTLVTVSS
modifications: activated via Traut's reagent (thiolated) and conjugated to maleimide groups of Maleimido-Succinyl-PEG4000-Oleate on the liposome
notes: also called BIL03s; BIL03s-coated nanoparticles
B1: binds.

From patent US20220249692A1 (BIOSCEPTRE AUST, published 2022)
